What all share (experiment): peptide binding ELISA: GST-PDZ on plate, biotin-peptide/streptavidin-alkaline phosphatase complex, colorimetric
A general note: An ELISA detects its analyte on a solid surface through an enzyme-linked reagent.

In experiment [1] the target is T1, MMAC1.388-403 biotin-ENEPFDEDQHTQITKV-COOH (SMILES …).
T1 construct: also called the 16 C-terminal amino acids of MMAC1
T1 peptide: Biotin-ENEPFDEDQHTQITKV-OH
From the text:
(§1) cDNAs encoding each of the MMSC1 PDZ domains (amino acid residues identified in Table 1), and any desired control proteins, were generated by PCR and subcloned as glutathione S-transferase (GST) fusions in pGEX vectors (Pharmacia). After sequencing to confirm expression construct integrity, the resulting clones were expressed in E. coli and the desired fusion proteins isolated with glutathione-agarose and recovered with glutathione elution. These fusion proteins or control proteins were then adsorbed to different wells of a 96-well ELISA plate and remaining sites blocked with BSA. Synthetic commercially synthesized peptides encoding the desired PDZ-binding domain (i.e., the 16 C-terminal amino acids of MMAC1, or the C-terminal peptide sequences of interacting proteins identified by the approach of Example 2, or the C-terminal peptide sequences identified by the approach of Example 3), or a control peptide, and biotinylated at the amino-terminus, were pre-bound to streptavidin-alkaline phosphatase in a 4:1 molar ratio. The biotinylated peptide streptavidin-alkaline phosphatase complexes were then blocked with free biotin. These pre-bound peptide streptavidin-alkaline phosphatase complexes were then incubated with the immobilized PDZ domains in wash buffer containing PBS, BSA and triton-X100. Unbound material was removed with repeated washes. Bound peptide/streptavidin-alkaline phosphatase complex was then quantitated by a colorimetric phosphatase assay read on a 96-well plate reader.

The target of experiment [2] is T2, SH3 binding peptide biotin-SGSGILAPPVPPRNTR-COOH (SMILES …).
T2 peptide: Biotin-SGSGILAPPVPPRNTR-OH
Text: as §1

Experiment [3] addresses T3, AF6 PDZ binding peptide biotin-SGDDGDDPFLQYEFYV-COOH (SMILES …).
T3 peptide: Biotin-SGDDGDDPFLQYEFYV-OH
Text: as §1

* marks the point of attachment. Biotin = O=C1N[C@H]2[C@H](CS[C@H]2CCCCC(=O)*)N1

B1: GST fusion of MMSC1 PDZ domain 6 (amino acids 1067-1158) (other)
chain: RIVEIFREPNVSLGISIVGGQTVIKRLKNGEELKGIFIKQVLEDSPAGKTNALKTGDKILEVSGVDLQNASHSEAVEAIKNAGNPVVFIVQS
notes: Expressed in E. coli, purified on glutathione-agarose, adsorbed to the ELISA plate; GST is placed N-terminal as in pGEX vectors; also called MMSc1 PDZ 6; PDZ domain number 6; not shown: glutathione S-transferase (GST) encoded by pGEX vectors (Pharmacia)
For B1, the A405 in experiment [1] was 0.23 A405; in experiment [2], 0 A405; in experiment [3] it was 1.46 A405.

B2: GST fusion of MMSC1 PDZ domain 5 (amino acids 685-771) (other)
chain: KIVELVKDCKGLGFSILDYQDPLDPTRSVIVIRSLVADGVAERSGGLLPGDRLVSVNEYCLDNTSLAEAVEILKAVPPGLVHLGICK
notes: Expressed in E. coli, purified on glutathione-agarose, adsorbed to the ELISA plate; GST is placed N-terminal as in pGEX vectors; also called MMSc1 PDZ 5; PDZ domain number 5; not shown: glutathione S-transferase (GST) encoded by pGEX vectors (Pharmacia)
On to B2, for which the figures for the A405 in experiment [1], in experiment [2] and in experiment [3] were 0 A405, 0 A405 and 0.02 A405, respectively.

B3: GST fusion of MMSC1 PDZ domain 3 (amino acids 364-451) (other)
chain: YNVELVRKDGQSLGIRIVGYVGTSHTGEASGIYVKSVIPGSAAYHNGHIQVNDKIVAVDGVNIQGFANHDVVEVLRNAGQVVHLTLVR
notes: Expressed in E. coli, purified on glutathione-agarose, adsorbed to the ELISA plate; GST is placed N-terminal as in pGEX vectors; also called MMSc1 PDZ 3; PDZ domain number 3; not shown: glutathione S-transferase (GST) encoded by pGEX vectors (Pharmacia)
As to B3, the A405 in experiment [1] is 0.01 A405; in experiment [2] it was 0.01 A405; in experiment [3] it was 2.24 A405.

B4: GST fusion of MMSC1 PDZ domain 9 (amino acids 1532-1613) (other)
chain: FPVDLQKKAGRGLGLSIVGKRNGSGVFISDIVKGGAADLDGRLIQGDQILSVNGEDMRNASQETVATILKCAQGLVQLEIGR
notes: Expressed in E. coli, purified on glutathione-agarose, adsorbed to the ELISA plate; GST is placed N-terminal as in pGEX vectors; also called MMSc1 PDZ 9; PDZ domain number 9; not shown: glutathione S-transferase (GST) encoded by pGEX vectors (Pharmacia)
For B4, the A405 worked out at 0.1 A405 in experiment [1], 0.02 A405 in experiment [2] and 2.41 A405 in experiment [3].

B5: GST fusion of MMSC1 PDZ domain 8 (amino acids 1436-1518) (other)
chain: MIIEISKGRSGLGLSIVGGKDTPLNAIVIHEVYEEGAAARDGRLWAGDQILEVNGVDLRNSSHEEAITALRQTPQKVRLVVYR
notes: Expressed in E. coli, purified on glutathione-agarose, adsorbed to the ELISA plate; GST is placed N-terminal as in pGEX vectors; also called MMSc1 PDZ 8; PDZ domain number 8; not shown: glutathione S-transferase (GST) encoded by pGEX vectors (Pharmacia)
For the molecule B5, the A405 in experiment [1] is 0.3 A405; in experiment [2], 0 A405; in experiment [3], 0.29 A405.

B6: GST fusion of MMSC1 PDZ domain 7 (amino acids 1238-1320) (other)
chain: HIIELEKDKNGLGLSLAGNKDRSRMSIFVVGINPEGPAAADGRMHIGDELLEINNQILYGRSHQNASAIIKTAPSKVKLVFIR
notes: Expressed in E. coli, purified on glutathione-agarose, adsorbed to the ELISA plate; GST is placed N-terminal as in pGEX vectors; also called MMSc1 PDZ 7; PDZ domain number 7; not shown: glutathione S-transferase (GST) encoded by pGEX vectors (Pharmacia)
B6: the A405 was 1.25 A405 in experiment [1], 0.01 A405 in experiment [2] and 1.05 A405 in experiment [3].

Values taken from US20030027228A1 (MYRIAD GENETICS, published 2003).
